Values quoted from earlier work, collected in publication PMC5801593.

Target: IscS (Escherichia coli) (UniProt P0A6B7)
Assay: fluorescence labeling and calorimetry

IscS (Escherichia coli), sequence (P0A6B7 whole entry): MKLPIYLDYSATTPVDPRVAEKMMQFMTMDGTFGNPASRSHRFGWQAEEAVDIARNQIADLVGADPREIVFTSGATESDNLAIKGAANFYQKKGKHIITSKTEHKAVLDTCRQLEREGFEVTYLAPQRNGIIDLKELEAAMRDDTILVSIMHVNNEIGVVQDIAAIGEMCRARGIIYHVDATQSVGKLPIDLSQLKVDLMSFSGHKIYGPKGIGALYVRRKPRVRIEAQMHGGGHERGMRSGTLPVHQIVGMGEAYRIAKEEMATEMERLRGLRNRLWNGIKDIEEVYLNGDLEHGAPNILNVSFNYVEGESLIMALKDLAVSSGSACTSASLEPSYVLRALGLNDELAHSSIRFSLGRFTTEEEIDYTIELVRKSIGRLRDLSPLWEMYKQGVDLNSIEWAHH
CyaY, sequence (P27838 whole entry): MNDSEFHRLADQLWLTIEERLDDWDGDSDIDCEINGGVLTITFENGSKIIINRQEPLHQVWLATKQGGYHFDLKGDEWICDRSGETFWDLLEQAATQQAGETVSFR

In the case of CyaY (from UniProt P27838), the Kd is listed as 20 µM.
For IscX (from UniProt P0C0L9), the Kd is given as 12 µM.
